Test results: publication doi:10.1101/2022.01.16.476467 (bioRxiv, 2022)

T1: CASK full-length protein (recombinant) (Mus musculus, UniProt O70589-3 1-897)
T1 sequence (looked up): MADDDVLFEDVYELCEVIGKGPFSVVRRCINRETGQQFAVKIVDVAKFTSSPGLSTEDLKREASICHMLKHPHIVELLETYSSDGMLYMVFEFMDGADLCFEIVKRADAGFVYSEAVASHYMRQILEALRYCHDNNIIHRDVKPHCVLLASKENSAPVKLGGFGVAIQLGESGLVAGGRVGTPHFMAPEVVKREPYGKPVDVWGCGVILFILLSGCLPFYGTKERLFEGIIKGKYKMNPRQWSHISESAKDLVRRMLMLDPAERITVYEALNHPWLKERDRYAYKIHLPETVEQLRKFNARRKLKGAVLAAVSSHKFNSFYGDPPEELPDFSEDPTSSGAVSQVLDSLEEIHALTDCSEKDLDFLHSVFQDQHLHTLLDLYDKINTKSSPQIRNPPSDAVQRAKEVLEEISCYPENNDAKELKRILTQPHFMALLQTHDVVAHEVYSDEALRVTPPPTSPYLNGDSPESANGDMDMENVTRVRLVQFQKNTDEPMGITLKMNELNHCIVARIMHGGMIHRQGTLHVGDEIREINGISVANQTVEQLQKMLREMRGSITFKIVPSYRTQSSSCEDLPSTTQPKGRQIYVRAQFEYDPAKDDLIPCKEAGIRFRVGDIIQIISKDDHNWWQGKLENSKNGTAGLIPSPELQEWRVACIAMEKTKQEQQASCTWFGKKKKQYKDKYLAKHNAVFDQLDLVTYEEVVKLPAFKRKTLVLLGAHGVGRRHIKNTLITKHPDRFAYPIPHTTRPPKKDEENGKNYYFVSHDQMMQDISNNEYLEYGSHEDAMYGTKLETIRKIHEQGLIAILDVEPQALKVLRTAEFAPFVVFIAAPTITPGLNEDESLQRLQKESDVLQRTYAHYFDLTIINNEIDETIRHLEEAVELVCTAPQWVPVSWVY

T2: CASK_CAMK domain (residues 1-345) (Mus musculus, UniProt O70589-3 1-345)
T2 sequence (looked up): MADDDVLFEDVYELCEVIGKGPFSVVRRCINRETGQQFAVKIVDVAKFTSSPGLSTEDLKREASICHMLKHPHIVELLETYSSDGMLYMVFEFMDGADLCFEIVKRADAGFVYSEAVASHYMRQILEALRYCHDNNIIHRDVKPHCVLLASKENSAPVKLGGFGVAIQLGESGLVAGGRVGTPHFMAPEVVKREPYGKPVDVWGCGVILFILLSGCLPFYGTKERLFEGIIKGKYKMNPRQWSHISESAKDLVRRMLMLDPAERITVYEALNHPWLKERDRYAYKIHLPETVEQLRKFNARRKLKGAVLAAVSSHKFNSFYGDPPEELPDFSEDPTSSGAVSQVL

B1: Caskin1_N-terminal (residues 1-674) (domain or fragment)
chain: not shown
B2: Caskin1 extended CID protein (residues 371-466) (domain or fragment, Mus musculus, UniProt Q6P9K8-1 371-466, looked up)
chain: PPEEIWVLRKPFAGGDRSGSLSNVAGGRSTGGHALHAGSEGVKLLATVLSQKSVSESSPGDSPVKPPEGSSGAARSQPPAAHAGQVYGEQPPKKLE

Key:
[1] = target: T1, CASK full-length protein (recombinant); experiment: ITC
[2] = target: T2, CASK_CAMK domain (residues 1-345); experiment: SEC-MALS
[3] = target: T2, CASK_CAMK domain (residues 1-345); experiment: ITC

| Binder | Kd [1] | stoichiometry N [2] | Kd [3] |
| --- | --- | --- | --- |
| B1 | ~760 nM |  |  |
| B2 |  | ~1 | 940 ± 90 nM |
